Where “and” joins values, the source holds several entries; their conditions need not be identical. Identical values can stand only once. One block for each binder: values may come before it. No end group written: not given here. *: point of attachment. FITC = O=C1OC2(c3ccc(O)cc3Oc3cc(O)ccc32)c2ccc(NC(=S)*)cc21; 5FAM = O=C1OC2(c3ccc(O)cc3Oc3cc(O)ccc32)c2ccc(C(=O)*)cc21; Ahx = NCCCCCC(=O)O
Experiments:
[1] = biological target: Carboxyl terminus of Hsc70-interacting protein (CHIP/STUB1), human, WT, full length (human, UniProt Q9UNE7); assay: cryo-EM structure
Biotinylated CHIP = Biotinylated CHIP (Homo sapiens, UniProt Q9UNE7, biotin (site and way of biotinylation not stated)); assay: BLI
[2] = biological target: T1, Carboxyl terminus of Hsc70-interacting protein (CHIP/STUB1), human, WT, full length (human), Q9UNE7; assay: cryo-EM structure; settings: remark: other sources report otherwise
T1 chain: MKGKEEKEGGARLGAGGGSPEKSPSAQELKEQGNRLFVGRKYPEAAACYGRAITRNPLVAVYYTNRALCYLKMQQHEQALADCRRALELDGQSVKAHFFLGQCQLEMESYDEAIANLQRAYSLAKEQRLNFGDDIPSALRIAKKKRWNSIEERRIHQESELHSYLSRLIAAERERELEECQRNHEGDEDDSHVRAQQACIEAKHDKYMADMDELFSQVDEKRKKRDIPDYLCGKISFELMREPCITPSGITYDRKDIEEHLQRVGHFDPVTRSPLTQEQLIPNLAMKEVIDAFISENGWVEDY

[3] = biological target: T2, FAM-labeled Hsp70 C-terminal peptide (5FAM-Ahx-SSGPTIEEVD); assay: fluorescence polarisation
T2 peptide: {5FAM-Ahx}-SSGPTIEEVD

[4] = biological target: T3, CHIP-optimized peptide CHIPopt (FITC-Ahx-LWWPD); assay: fluorescence polarisation
T3 peptide: {FITC-Ahx}-LWWPD

[5] = biological target: T2, FAM-labeled Hsp70 C-terminal peptide …; assay: fluorescence polarisation
[6] = biological target: T3, CHIP-optimized peptide CHIPopt …; assay: fluorescence polarisation

Kd (Biotinylated CHIP): 1100 nM
B1: Fab H1 (CHIP-targeting fragment antigen-binding antibody) (Fab, V domains shown)
VH: VQLVQSGSEVKKPGASVKVSCKASGYTFTNYGISWVRQAPGQGLEWMGWISAYNGNTNYAQNFQGRVTMTTDTSTKTAYMELRSLRSDDTAVYFCARSGYSGYDNNLGAFDIWGQGTMVTVSS
VL: SVVTQPPSVSAAPGQKVTISCSGTSSNIGNSYVTWYQQLPGAAPKLLIYDNNKRPSGIPDRFSGSKSGTSATLGITGLQTGDEADYYCATWDSSLTAGRVFGGGTRLTVL
stoichiometry N [1]: 1 Fab per CHIP dimer (printed as 2:1 CHIP:Fab) and 2 Fab per CHIP dimer (printed as 2:2 CHIP:Fab)

stoichiometry N [1]: 1 Fab per CHIP dimer (printed as 2:1 CHIP:Fab)
Kd (Biotinylated CHIP): 40 nM
B2: Fab 2D2 (CHIP-targeting fragment antigen-binding antibody) (Fab, V domains shown)
VH: QVQLQQSGPGLMKGGQTLSLTCAISGDSVSSNSAAWNWIRQSPSRGLEWLGRTYYRSKWYNEYAVSVKSRITINPDTSKNQFSLQLNSVTPEDTAVYYCARAVAASFDYWGQGTLVTVSS
VL: ETTLTQSPGTLSLSPGERATLSCRASQSVSSTFLAWYQQKPGQAPRLLIYGASRRATGIPDRFSGSGSGTDFTLTISRLEPEDFAVYYCQRYGATYTFGQGTKLEIK

stoichiometry N [2]: 2
apparent Kd with Fab H1 present [3]: 140 nM
apparent Kd with Fab H1 present [4]: 0.01 nM
apparent Kd with Fab 2D2 present [5]: 260 nM
apparent Kd with Fab 2D2 present [6]: 0.016 nM
B3: Carboxyl terminus of Hsc70-interacting protein (CHIP/STUB1), human, WT, full length (enzyme)
chain: T1 chain
